Here are results for two molecules from US20140141093A1 (DOMANTIS, published 2014).

One test concerns the target T1, human VEGF (human, UniProt P15692-4 27-191, biotinylated in selections and on the SA sensorchip).
T1 construct: also called hVEGF; VEGFA
Briefly: RBA assay (footnote †); value read as that of the Fc fusion.

The target in the next test is T2, TNFR1-FC fusion (human, UniProt P19438 30-211, limits assumed).
T2 construct: not shown: Fc part (captured by goat anti-human IgG)
T2 sequence (looked up): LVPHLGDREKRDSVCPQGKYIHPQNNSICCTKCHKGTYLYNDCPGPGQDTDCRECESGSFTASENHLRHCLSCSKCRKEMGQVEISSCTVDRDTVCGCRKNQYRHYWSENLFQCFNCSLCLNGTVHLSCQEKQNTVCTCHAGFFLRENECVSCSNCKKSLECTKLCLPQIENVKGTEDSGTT
Briefly: human TNFR1 receptor binding assay: inhibition of TNF-alpha (10 ng/ml) binding to bead-captured TNFR1-Fc, four replicates.

T1 sequence (P15692 other isoform, or with tags, fused parts or gaps limits assumed): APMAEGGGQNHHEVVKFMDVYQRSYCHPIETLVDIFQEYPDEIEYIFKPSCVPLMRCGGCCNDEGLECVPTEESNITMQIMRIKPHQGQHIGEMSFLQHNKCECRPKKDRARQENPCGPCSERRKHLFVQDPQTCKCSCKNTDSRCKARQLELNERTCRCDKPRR

B1: DOM15-10 Fc fusion (Fc fusion)
chain: DIQMTQSPSSLSASVGDRVTITCRASQWIGPELSWYQQKPGKAPKLLIYHTSILQSGVPSRFSGSGSGTDFTLTISSLQPEDFATYYCQQYMFQPRTFGQGTKVEIRR
notes: also called DMS1546; not shown: short peptide linker and human IgG1 Fc
With B1, the “Activity (nM), RBA assay” value with human VEGF worked out at 0.913 nM.

B2: DOM1h-131-206 (other)
VH: EVQLLESGGGLVQPGGSLRLSCAASGFTFAHETMVWVRQAPGKGLEWVSHIPPDGQDPFYADSVKGRFTISRDNSKNTLYLQMNSLRAEDTAVYHCALLPKRGPWFDYWGQGTLVTVSS
notes: Human VH dAb against TNFR1; also called GSK1995057A
On to B2, for which, in the test with TNFR1-FC fusion, the “IC50 (read off the curve)” value was approximately 0.08 nM.
